Laboratory results reported in publication PMC7171158.

Target: NusA-AR2^D443C labeled with fluorescein-5-maleimide (E. coli) (UniProt P0AFF6)
Assay: fluorescence polarisation; fluorescence anisotropy; 25 nM fluorescein-labeled NusA-AR2^D443C with increasing unlabeled protein; 25 °C; 50 mM Na-P pH 6.5, 100 mM NaCl, 150 mM glucose, 5 mM DTT, 0.05% Tween; two-state binding model

B1: λQ deletion variant lacking 36 residues at the N-terminus (λQ^Δ36) (domain or fragment)
chain: AMGMAQSQAGFGMAAFCGKHELSQNDKQKAINYLMQFAHKVSGKYRGVAKLEGNTKAKVLQVLATFAYADYCRSAATPGARCRDCHGTGRAVDIAKTELWGRVVEKECGRCKGVGYSRMPASAAYRAVTMLIPNLTQPTWSRTVKPLYDALVVQCHKEESIADNILNAVTR
- Kd: 271 µM

B2: antiterminator protein Q from phage λ (λQ), full length (natural protein)
chain: MRLESVAKFHSPKSPMMSDSPRATASDSLSGTDVMAAMGMAQSQAGFGMAAFCGKHELSQNDKQKAINYLMQFAHKVSGKYRGVAKLEGNTKAKVLQVLATFAYADYCRSAATPGARCRDCHGTGRAVDIAKTELWGRVVEKECGRCKGVGYSRMPASAAYRAVTMLIPNLTQPTWSRTVKPLYDALVVQCHKEESIADNILNAVTR
- Kd: 268 µM
